From patent publication US20130295090A1 (US Dept. of Health and Human Services, published 2013) come the findings set out here.

Like-named read-outs stand apart in the source and are kept apart here. Some results are limits rather than exact numbers.

Experiment [1] addresses T1, JEV strain SA14-14-2 envelope (E) protein on virions (Japanese encephalitis virus strain …, UniProt P0DOH7 295-794).
Experiment [2] deals with T1, JEV strain SA14-14-2 envelope (E) …. Description: cell-based or functional assay.
For experiment [3] the target is unchanged. In words: ELISA on JEV virions, half maximum binding (FIG. 4A).
For experiment [4] the target is unchanged. In words: ELISA, virion-coated plate; initial Fab ~100 µg/ml.
The target is the same in experiment [5]. In words: ELISA on JEV SA14-14-2 virions captured with HMAF.
The target in experiment [6] is T2, recombinant JEV N-terminal 80% E protein (Japanese encephalitis virus strain …, UniProt P0DOH7 295-692). Description: SPR (Biacore 3000), recombinant E immobilized, Fab in solution. Background: SPR reads the build-up and loss of mass on a sensor chip optically.
For experiment [7], the target named is T1, JEV strain SA14-14-2 envelope (E) …. In words: ELISA on JEV virions captured with HMAF, half-maximal binding, Fab.
Experiment [8] has the same target. In words: cell-based or functional assay. The source holds these as a separate data set.
For experiment [9] the target is unchanged. In words: cell-based or functional assay. The source holds these as a separate data set.
Experiment [10] addresses E protein of wild type JEV strain JE 1991 (genotype I) (Japanese encephalitis virus strain JE …). In words: cell-based or functional assay.
Experiment [11] has as its target E protein of wild type JEV strain JE B1034/8 (genotype II) (Japanese encephalitis virus strain JE …). Description: cell-based or functional assay.
The target in experiment [12] is E protein of wild type JEV strain Beijing (genotype III) (Japanese encephalitis virus strain …). Description: cell-based or functional assay.
Experiment [13] has as its target E protein of wild type JEV strain JKT 9092 (genotype IV) (Japanese encephalitis virus strain JKT …). In words: cell-based or functional assay.
Experiment [14] addresses T1, JEV strain SA14-14-2 envelope (E) …. In words: cell-based or functional assay. This is another data set of the same source.
Experiment [15] has the same target. Description: ELISA on JEV virions captured with HMAF, half-maximal binding, MAb.
The target is the same in experiment [16]. This is another data set of the same source.
For experiment [17] the target is unchanged. The source holds these as a separate data set.
Experiment [18] addresses T2, recombinant JEV N-terminal 80% E protein. In words: SPR, recombinant E immobilized.

B1: Fab E3 (Fab, V domains shown)
VH: EVQLLESGPGLVRPSQTLSLTCAVSGASISGPLSYWTWIRQSPGKKMEHIGSMFYSGNTYYNPSLKGRITMSVDTSRNQFSLNLNSVTVADTAVYFCARRRETELFGLPIDYWGQGILVTVSS
VL: ELTQSPATLSVSPGERATLSCRASERISSSYLSWYQQKPGQAPRLLMYGTSTRATGIPARFSGSGSGTDFTLTISSLQPEDFAVYFCQQDYNLPWTFGQGTKLEIKR
The term EC50 denotes the concentration that produces a half-maximal response. A low value points to a more potent agent. The EC50 (read off the curve) is the concentration giving half of the maximal effect. Broadly, the Kd is the constant that tells how readily two partners part at equilibrium. The term koff denotes a measure of how fast the partners let go of each other. Broadly, the kon is the rate constant with which the complex forms. B1: the “IC50 (read off the curve)” value in experiment [1] is around 7 nM. Also, the “PRNT50 titer” value in experiment [2] was 84.9 nM. A half-maximal response in experiment [3] (EC50) required 0.98 nM. Besides, the “ELISA titer (1/log10 dilution)” value in experiment [4] is 4.2 log10 reciprocal dilution. Further, the “EC50 (read off the curve)” value in [5] was around 1 nM. Moreover, in [6], the dissociation constant (Kd) turned out to be 0.35 nM, the off-rate constant (koff) was 3.6e-05 s⁻¹ and the on-rate (kon) is 100000 M⁻¹ s⁻¹. Moreover, in experiment [7], the dissociation constant (Kd) was 0.98 nM.

B2: humanized MAb E3 (antibody, V domains shown)
VH: B1 VH
VL: B1 VL
As for B2, the “occupancy of accessible antibody sites on the virion for neutralization” value (“occupancy of accessible antibody sites” for short) in experiment [8] is 66%. The “PRNT50 titer” value was 0.93 nM in experiment [9]; 0.21 nM in experiment [10]; 0.14 nM in experiment [11]; 0.71 nM in experiment [12]; 0.36 nM in experiment [13]. The “PRNT50” value in experiment [14] worked out at 0.09 µg/mL. In addition, the affinity in experiment [15], expressed as Kd, was 0.31 nM.

B3: Fab A3 (Fab, V domains shown)
VH: EVQLLESGAEVKKPGSSVRISCKVSGTPYSSYVMNWVRQAPGQGLEWMGVFVPSLDRALYAQNFQGRLSITADTTTTYMELTSLKFEDTAVYYCATDFSVGWLRPLDRWGQGTLVTVSS
VL: ELQMTQSPSSLSASVGDRVTITCRASQGISNYLAWYQQKPGKAPKLLIYYASRLESGVPSRFSGSGSGTDYTLTISSLQPEDFATYYCQQYNSNPFTFGPGTKVDIKR
Consider B3, for which the “IC50 (read off the curve)” value in [16] was around 6 nM. In addition, the “PRNT50 titer” value in experiment [2] amounted to 2.55 nM. Further, the EC50 in [3] turned out to be 0.45 nM. Besides, in experiment [4], the “ELISA titer (1/log10 dilution)” value amounted to 4.7 log10 reciprocal dilution. Further, in experiment [5], the concentration for a half-maximal effect (EC50 (read off the curve)) is around 0.5 nM. In addition, in experiment [6], the dissociation constant (Kd) was 0.72 nM, the koff came to 2.8e-05 s⁻¹ and the kon stood at 40000 M⁻¹ s⁻¹. In experiment [7], this molecule came in with a Kd of 0.45 nM.

B4: humanized MAb A3 (antibody, V domains shown)
VH: B3 VH
VL: B3 VL
Regarding B4, in experiment [8], the “occupancy of accessible antibody sites” value amounted to 45%. Further, the “PRNT50 titer” value in [9] is 0.2 nM; in experiment [10], 0.04 nM; in [11], 0.04 nM; in [12] it was 0.2 nM; in experiment [13], 0.07 nM. Further, the “PRNT50” value in [14] amounted to 0.04 µg/mL.

B5: humanized MAb B2 (antibody, V domains shown)
VH: VQLLEQSGSEVKKPGASVKVSCKASGYPFTDYAMSWVRQAPGQGLEYMGWIFTNSGNPTYAPGFAGRFVFSLDISVNTAYLHIDSLKPEDTAVYYCARGIVTPAASGDYFDSWGQGTLVTVSS
VL: ELVLTQSPSSLSASIGDRVTITCRASQHISSWLAWYQQKPGKAPKPLIYAASSLKSGVPSRFSGSGSGTDFTLTISGLQPEDFATYYCQQYENSPVTFGGGTKVEIKR
On to B5, for which the “occupancy of accessible antibody sites” value in experiment [8] is around 28%. In addition, the “PRNT50 titer” value in experiment [9] was found to be 0.03 nM; in [10] it was 0.02 nM; in experiment [11], 0.02 nM; in experiment [12], 0.02 nM; in [13], 2 nM. Moreover, the “PRNT50” value in experiment [14] came to 0.005 µg/mL.

B6: Fab B2 (Fab, V domains shown)
VH: B5 VH
VL: B5 VL
For B6, in [17], the “IC50 (read off the curve)” value was around 5 nM. Moreover, the “PRNT50 titer” value in experiment [2] was determined as 0.25 nM. In experiment [18], the “fold faster off-rate than Fab A3 or E3” value is at least 120 fold and the “fold weaker Kd than Fab A3 or E3” value is at least 150 fold. This molecule also registered a half-maximal effective concentration (EC50) in [3] of 0.28 nM. In addition, in experiment [4], the “ELISA titer (1/log10 dilution)” value amounted to 4.2 log10 reciprocal dilution. For the same molecule, in experiment [5], the 50% effective concentration (EC50 (read off the curve)) is around 0.2 nM. In experiment [6], the Kd is 110 nM, the koff stood at 0.0046 s⁻¹ and the kon worked out at 42000 M⁻¹ s⁻¹. Moreover, in experiment [7], the Kd is 0.28 nM.
